Ends that are not written are not given here. * marks the point of attachment. C16 diacid = O=C(O)CCCCCCCCCCCCCCC(=O)*
T1: human GIP receptor (human, UniProt P48546 22-466)
T1 sequence (looked up): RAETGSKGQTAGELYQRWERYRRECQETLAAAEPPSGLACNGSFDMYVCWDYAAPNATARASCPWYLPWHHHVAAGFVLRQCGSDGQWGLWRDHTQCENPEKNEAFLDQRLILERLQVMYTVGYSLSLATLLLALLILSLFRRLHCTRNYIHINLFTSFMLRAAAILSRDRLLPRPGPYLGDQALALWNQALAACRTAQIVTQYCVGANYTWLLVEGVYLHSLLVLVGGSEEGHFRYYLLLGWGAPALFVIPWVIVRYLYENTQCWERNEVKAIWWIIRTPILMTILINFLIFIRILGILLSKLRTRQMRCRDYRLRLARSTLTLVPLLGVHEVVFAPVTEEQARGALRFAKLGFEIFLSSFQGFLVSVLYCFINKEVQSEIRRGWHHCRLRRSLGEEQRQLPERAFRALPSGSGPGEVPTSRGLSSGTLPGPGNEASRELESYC

B1: AT171 [hGIP(5-30)NH2[D9K]-C16diacid/9] (peptide)
peptide: TFISK(C16 diacid)YSIAMDKIHQQDFVNWLLAQK-NH2
modifications: N-terminus assumed
SMILES: CC[C@H](C)[C@H](NC(=O)[C@H](CO)NC(=O)[C@H](Cc1ccc(O)cc1)NC(=O)[C@H](CCCCNC(=O)CCCCCCCCCCCCCCC(=O)O)NC(=O)[C@H](CO)NC(=O)[C@@H](NC(=O)[C@H](Cc1ccccc1)NC(=O)[C@@H](N)[C@@H](C)O)[C@@H](C)CC)C(=O)N[C@@H](C)C(=O)N[C@@H](CCSC)C(=O)N[C@@H](CC(=O)O)C(=O)N[C@@H](CCCCN)C(=O)N[C@H](C(=O)N[C@@H](Cc1c[nH]cn1)C(=O)N[C@@H](CCC(N)=O)C(=O)N[C@@H](CCC(N)=O)C(=O)N[C@@H](CC(=O)O)C(=O)N[C@@H](Cc1ccccc1)C(=O)N[C@H](C(=O)N[C@@H](CC(N)=O)C(=O)N[C@@H](Cc1c[nH]c2ccccc12)C(=O)N[C@@H](CC(C)C)C(=O)N[C@@H](CC(C)C)C(=O)N[C@@H](C)C(=O)N[C@@H](CCC(N)=O)C(=O)N[C@@H](CCCCN)C(N)=O)C(C)C)[C@@H](C)CC
B2: AT173 [hGIP(5-30)NH2[S11K]-C16diacid/11] (peptide)
peptide: TFISDYK(C16 diacid)IAMDKIHQQDFVNWLLAQK-NH2
modifications: N-terminus assumed
SMILES: CC[C@H](C)[C@H](NC(=O)[C@H](CCCCNC(=O)CCCCCCCCCCCCCCC(=O)O)NC(=O)[C@H](Cc1ccc(O)cc1)NC(=O)[C@H](CC(=O)O)NC(=O)[C@H](CO)NC(=O)[C@@H](NC(=O)[C@H](Cc1ccccc1)NC(=O)[C@@H](N)[C@@H](C)O)[C@@H](C)CC)C(=O)N[C@@H](C)C(=O)N[C@@H](CCSC)C(=O)N[C@@H](CC(=O)O)C(=O)N[C@@H](CCCCN)C(=O)N[C@H](C(=O)N[C@@H](Cc1c[nH]cn1)C(=O)N[C@@H](CCC(N)=O)C(=O)N[C@@H](CCC(N)=O)C(=O)N[C@@H](CC(=O)O)C(=O)N[C@@H](Cc1ccccc1)C(=O)N[C@H](C(=O)N[C@@H](CC(N)=O)C(=O)N[C@@H](Cc1c[nH]c2ccccc12)C(=O)N[C@@H](CC(C)C)C(=O)N[C@@H](CC(C)C)C(=O)N[C@@H](C)C(=O)N[C@@H](CCC(N)=O)C(=O)N[C@@H](CCCCN)C(N)=O)C(C)C)[C@@H](C)CC
B3: AT172 [hGIP(5-30)NH2[Y10K]-C16diacid/10] (peptide)
peptide: TFISDK(C16 diacid)SIAMDKIHQQDFVNWLLAQK-NH2
modifications: N-terminus assumed
SMILES: CC[C@H](C)[C@H](NC(=O)[C@H](CO)NC(=O)[C@H](CCCCNC(=O)CCCCCCCCCCCCCCC(=O)O)NC(=O)[C@H](CC(=O)O)NC(=O)[C@H](CO)NC(=O)[C@@H](NC(=O)[C@H](Cc1ccccc1)NC(=O)[C@@H](N)[C@@H](C)O)[C@@H](C)CC)C(=O)N[C@@H](C)C(=O)N[C@@H](CCSC)C(=O)N[C@@H](CC(=O)O)C(=O)N[C@@H](CCCCN)C(=O)N[C@H](C(=O)N[C@@H](Cc1c[nH]cn1)C(=O)N[C@@H](CCC(N)=O)C(=O)N[C@@H](CCC(N)=O)C(=O)N[C@@H](CC(=O)O)C(=O)N[C@@H](Cc1ccccc1)C(=O)N[C@H](C(=O)N[C@@H](CC(N)=O)C(=O)N[C@@H](Cc1c[nH]c2ccccc12)C(=O)N[C@@H](CC(C)C)C(=O)N[C@@H](CC(C)C)C(=O)N[C@@H](C)C(=O)N[C@@H](CCC(N)=O)C(=O)N[C@@H](CCCCN)C(N)=O)C(C)C)[C@@H](C)CC

What follows are binders tested against T1, human GIP receptor (assay: cell-based or functional assay).
With B1 the “cAMP agonism, Emax” value was 0, the “cAMP antagonism” value was 35 nM and the “cAMP antagonism, log” value was -7.5 log M. B2 was tested, and the “cAMP agonism, Emax” value was 0, the “cAMP antagonism” value was 10 nM and the “cAMP antagonism, log” value was -8 log M. In the case of B3, the “cAMP agonism, Emax” value is reported as 0, the “cAMP antagonism” value is reported as 259 nM and the “cAMP antagonism, log” value is reported as -6.6 log M.

These binders were tested against T1, human GIP receptor (assay: 125I-hGIP competition binding, COS-7/hGIPR, 2% HSA;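 further: nonspecific binding defined as radioligand binding to untransfected cells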).
Experimental: (§1) After incubation, the cells were washed twice in ice-cold binding buffer (+/−2% HSA) and lysed using 200 mM NaOH with 1% SDS for 30 min. Nonspecific binding was determined as the binding of radioactive ligand to untransfected cells.
With B1 the IC50 was 661 nM and the logIC50 was -6.2 log M. Work on B2 yielded an IC50 of 60.3 nM and a logIC50 of -7.2 log M. Binder B3 has an IC50 of 955 nM and a logIC50 of -6 log M.

Each binder was assayed against T1, human GIP receptor (assay: 125I-hGIP competition binding, COS-7/hGIPR, 0.1% casein;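 further: nonspecific binding defined as radioligand binding measured on untransfected cells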).
Experimental: as §1
With B1 the IC50 was 79.4 nM and the logIC50 was -7.1 log M. For B2, the IC50 was 8.1 nM and the logIC50 was -8.1 log M. In the case of B3, the IC50 is reported as 251 nM and the logIC50 is reported as -6.6 log M.

What follows are binders tested against T1, human GIP receptor (assay: 125I-hGIP competition binding, COS-7 cells expressing hGIPR;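 further: nonspecific binding taken as radioligand bound by untransfected cells, binding buffer with or without 2% HSA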).
Experimental: as §1
With B1 the IC50 was 86 nM and the “log IC50” value was -7.1 log M. For B2, the IC50 was 8 nM and the “log IC50” value was -8.1 log M. In the case of B3, the IC50 is reported as 252 nM and the “log IC50” value is reported as -6.6 log M.

These binders were tested against T1, human GIP receptor (assay: IC50 with 2% HSA over IC50 with 0.1% casein, 125I-hGIP competition, COS-7/hGIPR).
Experimental: as §1
In the case of B1, the “Fold change HSA (2%)/Casein (0.1%)” value is reported as 8.3 fold. In the case of B2, the “Fold change HSA (2%)/Casein (0.1%)” value is reported as 7.4 fold. For B3, the “Fold change HSA (2%)/Casein (0.1%)” value was 3.8 fold.
